In paper PMC9198273:

Key:
[1] = biological target: CXCR3-A C-terminally fused with SmBiT (human) (UniProt P49682)
[2] = biological target: CXCR3-B C-terminally fused with SmBiT (human) (UniProt P49682)
untagged CXCR3-A (human) = untagged CXCR3-A (human) (UniProt P49682)
[3] = biological target: CXCR3-A C-terminally fused with SmBiT (human) (UniProt P49682); remark: listed apart in the source
[4] = biological target: CXCR3-B -30, C-terminally fused with SmBiT (human) (UniProt P49682)
[5] = biological target: CXCR3-B -40, C-terminally fused with SmBiT (human) (UniProt P49682)
[6] = biological target: CXCR3-B C-terminally fused with SmBiT (human) (UniProt P49682); remark: listed apart in the source

Row | Table 1: miniGi recruitment to CXCR3-A, EC50 of the chemokine (NanoBiT-based assay) [1] [nM] | Table 1: miniGq recruitment to CXCR3-A, EC50 of the chemokine (NanoBiT-based assay) [1] [nM] | Table 1: β-arrestin-1 recruitment to CXCR3-A, EC50 of the chemokine (NanoBiT-based assay) [1] [nM] | Table 1: β-arrestin-2 recruitment to CXCR3-A, EC50 of the chemokine (NanoBiT-based assay) [1] [nM] | Table 2: β-arrestin-1 recruitment to CXCR3-A, EC50 of the chemokine (NanoBiT-based assay, HEK293T) [1] [nM] | Table 1: β-arrestin-2 recruitment to CXCR3-B, EC50 of the chemokine (NanoBiT-based assay) [2] [nM] | Table 1: Gi2 dissociation in CXCR3-A-expressing cells, EC50 of the chemokine (NanoBRET G protein activity sensor) (untagged CXCR3-A (human)) [nM] | Table 1: Go1 dissociation in CXCR3-A-expressing cells, EC50 of the chemokine (NanoBRET G protein activity sensor) (untagged CXCR3-A (human)) [nM] | Table 1: Gq dissociation in CXCR3-A-expressing cells, EC50 of the chemokine (NanoBRET G protein activity sensor) (untagged CXCR3-A (human)) [nM] | Table 1: cAMP, EC50 of the chemokine for the reduction of intracellular cAMP in CXCR3-A-expressing cells (GloSensor) (untagged CXCR3-A (human)) [nM] | Table 1: β-arrestin-1 recruitment to CXCR3-B, EC50 of the chemokine (NanoBiT-based assay) [2] [nM] | Table 2: β-arrestin-1 recruitment to CXCR3-B, EC50 of the chemokine (NanoBiT-based assay, HEK293T) [2] [nM] | Table 3: miniGi recruitment to CXCR3-A, EC50 of CXCL11 (NanoBiT-based assay, HEK293T) [3] [nM] | Table 3: β-arrestin-1 recruitment to CXCR3-A, EC50 of CXCL11 (NanoBiT-based assay) [3] [nM] | Table 3: miniGi recruitment to CXCR3-B -30, EC50 of CXCL11 (NanoBiT-based assay, HEK293T) [4] [nM] | Table 3: miniGi recruitment to CXCR3-B -40, EC50 of CXCL11 (NanoBiT-based assay, HEK293T) [5] [nM] | Table 3: β-arrestin-1 recruitment to CXCR3-B, EC50 of CXCL11 (NanoBiT-based assay) [6] [nM] | Molecule
1 | 18.2 | 22.2 | 17.8 | 2.9 | 10.7 | 59.2 | 0.9 | 1.9 | 2.3 | 14.1 | – | – | – | – | – | – | – | CXCL10 (from UniProt P02778 22-98) (ligand)
2 | – | – | – | 16000 | – | 100000 | 19.9 | 77.8 | 56 | 21.9 | – | – | – | – | – | – | – | CXCL9 (ligand) TPVVRKGRCSCISTNQGTIHLQSLKDLKQFAPSPSCEKIEIIATLKNGVQTCLNPDSADVKELIKKWEKQVSQKKKQKNGKKHQKKKVLKVRKSQRSRQKKTT
3 | 12.4 | 25.9 | 15.8 | 2.9 | 9.6 | 12.4 | 1.2 | 1.8 | 0.4 | 6.3 | 49.4 | 51.6 | 18.2 | 6.7 | 27.2 | 32.7 | 23.9 | CXCL11 (ligand) FPMFKRGRCLCIGPGVKAVKVADIEKASIMYPSNNCDKIEVIITLKENKGQRCLNPKSKQARLIIKKVERKNF
4 | – | – | – | – | 14.8 | – | – | – | – | – | – | 153 | – | – | – | – | – | CXCL11P2G (ligand) FGMFKRGRCLCIGPGVKAVKVADIEKASIMYPSNNCDKIEVIITLKENKGQRCLNPKSKQARLIIKKVERKNF
